These are literature values, as cited in article PMC5467299.

As a reminder, the Kd is the concentration at which binding is half-saturated.

Data set [1] concerns the target Plasminogen (Homo sapiens) (UniProt P00747).
A further data set concerns the target tPA (Homo sapiens) (UniProt P00750).
UniProt P00750, sequence (P00750 36-562): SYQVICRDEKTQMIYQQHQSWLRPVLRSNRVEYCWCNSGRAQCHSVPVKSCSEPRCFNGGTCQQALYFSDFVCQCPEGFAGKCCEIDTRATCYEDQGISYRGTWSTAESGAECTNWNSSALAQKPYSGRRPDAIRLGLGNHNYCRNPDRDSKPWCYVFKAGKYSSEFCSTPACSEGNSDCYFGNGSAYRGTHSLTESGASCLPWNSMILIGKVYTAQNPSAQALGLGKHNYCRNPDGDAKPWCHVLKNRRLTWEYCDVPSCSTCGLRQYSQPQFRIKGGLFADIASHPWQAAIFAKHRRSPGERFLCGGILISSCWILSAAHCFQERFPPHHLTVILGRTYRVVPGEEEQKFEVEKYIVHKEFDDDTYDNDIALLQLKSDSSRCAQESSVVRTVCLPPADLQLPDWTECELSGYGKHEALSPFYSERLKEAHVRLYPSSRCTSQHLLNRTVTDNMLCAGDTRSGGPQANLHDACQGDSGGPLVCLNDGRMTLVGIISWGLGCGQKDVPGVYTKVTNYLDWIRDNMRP

UniProt P00747, sequence (P00747 20-810): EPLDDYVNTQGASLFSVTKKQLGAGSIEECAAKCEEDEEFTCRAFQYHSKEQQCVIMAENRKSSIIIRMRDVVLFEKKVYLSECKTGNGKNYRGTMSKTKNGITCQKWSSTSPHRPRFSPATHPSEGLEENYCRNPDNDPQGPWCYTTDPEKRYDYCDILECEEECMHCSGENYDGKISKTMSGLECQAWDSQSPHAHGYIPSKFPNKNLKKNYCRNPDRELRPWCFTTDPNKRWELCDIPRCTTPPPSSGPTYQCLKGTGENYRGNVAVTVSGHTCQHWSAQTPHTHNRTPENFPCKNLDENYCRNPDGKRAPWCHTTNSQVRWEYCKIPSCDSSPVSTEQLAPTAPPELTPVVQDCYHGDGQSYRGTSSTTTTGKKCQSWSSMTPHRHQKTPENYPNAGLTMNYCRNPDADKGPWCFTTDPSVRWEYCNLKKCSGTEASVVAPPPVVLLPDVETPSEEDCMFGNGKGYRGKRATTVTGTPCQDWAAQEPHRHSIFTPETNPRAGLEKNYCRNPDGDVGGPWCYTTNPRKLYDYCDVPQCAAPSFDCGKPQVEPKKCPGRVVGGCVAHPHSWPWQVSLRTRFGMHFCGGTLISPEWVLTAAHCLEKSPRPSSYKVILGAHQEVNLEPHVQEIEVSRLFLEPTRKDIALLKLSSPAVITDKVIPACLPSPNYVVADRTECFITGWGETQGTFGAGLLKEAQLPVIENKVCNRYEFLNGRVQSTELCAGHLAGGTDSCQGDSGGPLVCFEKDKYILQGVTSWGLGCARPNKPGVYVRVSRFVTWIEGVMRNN

On to “Fibrin alpha chain 148-160 (from UniProt P02671)”, for which the Kd (in data set [1]; with tPA (Homo sapiens)) was 1000 nM in each case.
